B1: TPR t1 (parent)
chain: GACCAAUCUGCCCUCAGAGCUCGAGAACAUCUUCGGAUGCAGAGGAGGCAGGCUUCGGUGGCGCGAUAGCGCCAACGUCCUCAACCUCCAAUGCAUCCCACCACAUGAUGAUGCCUGAAGAGCCUUGGUUUUUUG

Variants of: B1
Assay: polymerase ribozyme fitness, log enrichment relative to wild type (log ratio); higher = more active; in vitro selection for triplet polymerase activity
Procedure, shortened: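 Genotype fitness is the logarithm of its enrichment divided by wild-type enrichment, using inverse-variance-weighted averages of replicates. That logarithm is base 2. Enrichment was measured by Illumina sequencing of input and output libraries from one triplicate in vitro selection round, with frozen incubation at −7 °C, on PCR-built, transcribed mutant libraries of each subunit of a heterodimeric triplet polymerase ribozyme, retaining genotypes with ≥10 input reads and ≥1 read per output.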

Variant | polymerase ribozyme fitness (log ratio)
G52A G63C | -0.879
A50U G61C C88U G113C | -5.11
G52A G69U U78A C89U G128U | -2.93
C49G A119G C123G | 1.72
A50U G117U | -2.6
A50G C99U | -3.27
G52U C70U | -1.49
C49U C53A C104U | -0.231
G51U G71U C79G | -2.26
C53A C56G G71C G127C | -1.96
A50U G93A | -1.21
G51A C88U | -2.93
G52U G60A A105C U106G A118G | -3.93
G51U U55A C73U U78G C98U A105U | -7.15
C53A C56G C70U U132A | -0.0503
C49U C62G | -4.14
A50U U59C | -0.6
C49G U109C | -4.72
A50C C73A U92G U112A G135A | -3.24
G51A C101U G117A | -4.58
G51C G52U C102A C124A | -4.54
C49G U129C | -0.4
C49U C53U C79A G120A G128A | -3.2
G51C C79A G117A U133G | -5.7

Variant | polymerase ribozyme fitness (log ratio)
A50U U112A U125C | -0.475
G52A U78C C86A C124G G128A | -1.71
G52A A66G | -1.47
A50C C56A | -0.326
A50C G71A U133C | -0.939
C49G U130A | -1.8
G52C A119G C124U | 1.65
C53A A83G A105C | -3.47
C49G G69C | -1.79
C49G U55C A95C C98U | -3.54
G52U A83C C101G C115U | -4.77
C49A U131C | -0.0361
A50C G110C | -4.96
G52A C98U | -1.13
C49U G113A | -1.68
C49U G93A | -1.33
G51A C99U | -7.64
G51A C53A U133A | -2.17
C49G G60C C86U | -0.802
G52U C86G C89G G113C C114U A118G | -4.62
C49G U125A | -0.51
C49U C76G | -0.454
A50G C56A C82A U131C | -1.25
G51U G52A | -4.95

Variant | polymerase ribozyme fitness (log ratio)
G52A C53A A74G A90G | 0.00151
C49A U112A G127C | -0.179
G51U U55G | -3.24
C53A A90U G117C | -4.59
A50C G63C C97U | -1.52
G51C G57A | -3.2
A50U A84C U125A | -1.62
A50U C94U | -0.732
G51U C70U | -3.37
G51U C70G | -5.67
A50C G52U C94A G117A | -6.56
G51A C56G C124U | -1.06
G52U G93C G120A G135C | -1.15
A50C U78G G110C G120A C124U | -4.98
G51U G117U | -5.83
C49G C88A G107U | -6.08
G51U A68U U106G G110U C124A | -5.92
A50G U112C U116A | -0.435
G52A C115U | -2
A50U U116A | -4.25
C49U C115A | -0.871
G52U G69C | -1.54
C49U A90G | 0.52
G52A A90C A100U A111G | -2.82

Variant | polymerase ribozyme fitness (log ratio)
G51U G113U | -6.05
C49G G51A U54G | -4.1
G52U C73A | -0.528
C49U U112A | 0.631
G51C C53G G61U | -2.56
C49A U92G G117U C123U | -6.98
G51C G60A A111G | -4.94
C49G C82G | -1.03
G51A G57C C114A | -3.38
G52A A74G U78G C80A | -3.14
C49U C72U C89G | -1.87
G51U G61C U87C C123A | -4.21
A50G C88A C97G | -4.42
A50U C73A C76G U112A | -3.53
G51A C56A G93A C114U G117U | -6.47
C49U U87A | -0.416
C49U G77U C123G | 0.718
C49G C62G C114A G117C | -7.8
A50U A84G A111C | -4.92
A50U C88A G110A | -3.66
G51A G60A | -1.34
A50G U55A G69A | -2.85
G52U G58C G77A U87C U96G | -1.61
A50U G63C U78A U112C U116G A119C | -6.63

Variant | polymerase ribozyme fitness (log ratio)
G51U G77C A91C C94A | -5.09
C53A A66U C72U C123U | 0.234
A50U G63C U112A A118G | -2.37
G52U G60U | -0.578
G51A C64A | -6.96
A50U G63U C104A | -5.48
C49U U54G U59A C79U C101A G113U | -5.96
G51C G93U | -5.19
A50C G63U G69U U81G G128C | -3.4
A50U U81A A100C | -1.2
C49U A75U C79U U116A U130C | -4.3
A50G C70U G113C | -3.88
G51U U116C | -4.25
C49G A83G C124G | 1.03
C49U A95U C102A | -3.2
C49G U59G C62U G122A | -1.61
C49G C79A | -3.75
A50G G113U U131A | -4.11
C53A C70U | 0.0165
G52U G61C G122A U125G | -1.37
A50U G69U U81C C114A | -2.1
C49G C89A | -2.67
C49A U87C | 0.179
A50C C115A U132C | -0.367

Variant | polymerase ribozyme fitness (log ratio)
G51U C76A U106A | -2
C49G C62A U78C | -1.5
A50C C94U | -0.435
C49G G69A A100C C101U | -5.56
G52A C114A | -2.73
G52A C114U | -2.52
G51A G113C G122U G135U | -7.38
C53A A66G C123U | 0.367
G51A U106A | -2.35
G52U U59A G113C A119G | -1.67
G52U G69U A91C C104A | -2.27
G51U G71C U109G G117U C124G | -7.73
A50C C73A A74U | -1.27
G52U C53G U54C U78C C97U | -1.14
G52U C88G A118U | -0.0981
G52U G61A C94U | -0.267
C53A C56G C62U C89A G120C U134G | -0.681
C49G U106G U116C | -4.97
G52U C80G | -4.76
G51C A91U G113C C124A | -5.11
C49U G69A | -3.63
A50G U129G | -0.967
C53A A68U | -6.8
C49U U132A | -0.342

Variant | polymerase ribozyme fitness (log ratio)
C49G C70U A84G U126G U129G G135C | -4.25
G52U C114U U125A | -4.04
G51C C62U | -3.45
G52C C72A C104U C115G U116C U126G | -6.41
C49U C101A | -1.69
A50G A91C | -1.05
G51A U81C C97U C115G | -5.02
A50U G69A | -3.65
A50C A121G | 1.73
A50G C72G C79A U132C | -1.72
G52C C72A | -1.99
C49U C72A C79G C104A | -4.65
G51U C104U | -3.67
A50G G117A | -1.18
G51C C72A | -3.1
C49A U55C C88G C94U C124U | 0.14
A50U G51A G60A | -4.34
C49A G113A | -0.955
G52A G135U | -1.86
G52A U109A | -5.76
G52A C79A G110C | -5.08
G51U C73U U112C | -1.32
G52U G61C C124G U131G | -1.09
